For one data set, the target named is T1, SVEN_3027 (Streptomyces venezuelae, UniProt F2R7M8).
T1 construct: synthetic gene, E. coli BL21(DE3)pLysS
Nature of the data set: stopped coupled assay of pyrophosphate (inorganic pyrophosphatase, malachite green). It counts as biochemical. The following applies: glucose 1-phosphate as co-substrate.

The target of data set [1] is Streptomyces venezuelae OtsA (trehalose-6-phosphate synthase) (Streptomyces venezuelae). Nature of the data set: SEC; Superdex 200 10/300 GL calibrated with size standards; 20 mM HEPES pH 7.0, 10 mM MgCl2, 100 mM NaCl; size of the self-associated form. On the technique in general: Size exclusion chromatography separates by hydrodynamic size, large species first.
Substrate in data set [2]: O=P(O)(O)O[C@H]1O[C@H](CO)[C@@H](O)[C@H](O)[C@@H]1O
The data set can be described thus: stopped coupled assay of pyrophosphate (inorganic pyrophosphatase, malachite green). It counts as biochemical, Streptomyces venezuelae. The following applies: ITP 1 mM fixed. An excerpt:
(§1) stopped coupled assay of pyrophosphate (inorganic pyrophosphatase, malachite green) on SVEN_3972

Substrate in data set [3]: O=P(O)(O)OP(=O)(O)OP(=O)(O)OC[C@H]1O[C@@H](n2cnc3c(O)ncnc32)[C@H](O)[C@@H]1O
Described as above. It counts as biochemical, Streptomyces venezuelae. To be noted: mannose 1-phosphate 2 mM fixed.
Description: as §1

Substrate in data set [4]: Nc1nc2c(ncn2[C@@H]2O[C@H](COP(=O)(O)OP(=O)(O)OP(=O)(O)O)[C@@H](O)[C@H]2O)c(=O)[nH]1
The data set is described as above. It counts as biochemical, Streptomyces venezuelae. The following applies: mannose 1-phosphate 2 mM fixed.
Description: as §1

Substrate in data set [5]: O=P(O)(O)O[C@H]1O[C@H](CO)[C@@H](O)[C@H](O)[C@H]1O
Described as above. It counts as biochemical, Streptomyces venezuelae. The following applies: GTP 2 mM fixed.
Description: as §1

Data set [6] concerns the molecule itself. Nature of the data set: SEC; Superdex 200 16/600; 50 mM MOPS pH 8.0, 0.025 mM EDTA, 5% (w/v) sucrose; size of the self-associated form.
Substrate in data set [7]: Nc1ncnc2c1ncn2[C@@H]1O[C@H](COP(=O)(O)OP(=O)(O)O[C@H]2O[C@H](CO)[C@@H](O)[C@H](O)[C@H]2O)[C@@H](O)[C@H]1O
The data set can be described thus: continuous coupled assay of NDP release (pyruvate kinase/lactate dehydrogenase). It counts as biochemical, Streptomyces venezuelae. To be noted: glucose 6-phosphate 5 mM fixed. An excerpt:
(§2) continuous coupled assay of NDP release (pyruvate kinase/lactate dehydrogenase) on S. venezuelae OtsA

Substrate in data set [8]: Nc1nc2c(ncn2[C@@H]2O[C@H](COP(=O)(O)OP(=O)(O)O[C@H]3O[C@H](CO)[C@@H](O)[C@H](O)[C@H]3O)[C@@H](O)[C@H]2O)c(=O)[nH]1
The description is as above. It counts as biochemical, Streptomyces venezuelae. The following applies: glucose 6-phosphate 5 mM fixed.
Description: as §2

Substrate in data set [9]: O=P(O)(O)O[C@H]1O[C@H](CO)[C@@H](O)[C@H](O)[C@@H]1O
The data set can be described thus: stopped coupled assay of pyrophosphate (inorganic pyrophosphatase, malachite green). It counts as biochemical, Streptomyces venezuelae. The following applies: GTP 0.3 mM fixed. An excerpt:
(§3) stopped coupled assay of pyrophosphate (inorganic pyrophosphatase, malachite green) on SVEN_2781

Substrate in data set [10]: Nc1nc2c(ncn2[C@@H]2O[C@H](COP(=O)(O)OP(=O)(O)OP(=O)(O)O)[C@@H](O)[C@H]2O)c(=O)[nH]1
The data set is described as above. It counts as biochemical, Streptomyces venezuelae. The following applies: glucose 1-phosphate 1 mM fixed.
Description: as §3

Substrate in data set [11]: O=P(O)(O)O[C@H]1O[C@H](CO)[C@@H](O)[C@H](O)[C@H]1O
Described as above. It counts as biochemical, Streptomyces venezuelae. To be noted: GTP 0.3 mM fixed.
Description: as §3

The record followed here is PMC5247666, “The Production and Utilization of GDP-glucose in the Biosynthesis of Trehalose 6-Phosphate by Streptomyces venezuelae*” (The Journal of Biological Chemistry, 2016).

T1 sequence (F2R7M8 entry or part of it): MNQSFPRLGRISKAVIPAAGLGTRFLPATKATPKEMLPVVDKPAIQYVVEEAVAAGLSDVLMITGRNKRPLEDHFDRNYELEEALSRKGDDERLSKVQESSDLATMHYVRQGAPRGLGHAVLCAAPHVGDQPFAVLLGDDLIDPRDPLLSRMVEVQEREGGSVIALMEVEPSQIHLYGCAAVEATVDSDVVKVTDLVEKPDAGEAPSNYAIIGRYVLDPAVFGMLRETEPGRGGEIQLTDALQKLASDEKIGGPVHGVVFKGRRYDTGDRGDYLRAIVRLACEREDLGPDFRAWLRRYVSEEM

Regarding `Cc1cn([C@H]2C[C@H](O)[C@@H](COP(=O)(O)OP(=O)(O)OP(=O)(O)O)O2)c(=O)[nH]c1=O` [dTTP], the “stopped coupled assay of pyrophosphate (inorganic pyrophosphatase, malachite gre)” value on SVEN_3027 was “donor substrate preference was UTP > dTTP ≫ CTP > GTP > ATP > ITP”.

For the molecule `O=c1ccn([C@@H]2O[C@H](COP(=O)(O)OP(=O)(O)OP(=O)(O)O)[C@@H](O)[C@H]2O)c(=O)[nH]1` [UTP], on SVEN_3027, the “stopped coupled assay of pyrophosphate (inorganic pyrophosphatase, malachite gre)” value is on record as “donor substrate preference was UTP > dTTP ≫ CTP > GTP > ATP > ITP”.

A word on the stoichiometry N: it is the number of molecules, sites or subunits per partner or assembly. The molecule “Streptomyces venezuelae OtsA (trehalose-6-phosphate synthase) (enzyme)” displayed a stoichiometry N in data set [1] of 2.

B1: Streptomyces venezuelae SVEN_3972 (ITP-mannose pyrophosphorylase) (enzyme, UniProt F2RFV6 1-238, looked up)
chain: MHTSPTQAVVLAGGQGSRLRPYTDDRPKPMVEIPGTGTPIIGHQLSWLAAEGVTDAVVSCGHLAEVLQEWLEGADLPLKVTTVVETEPLGRGGGLKYAAAHLPAPDQPWYATNGDIWTRFSLREMAAFHDERDALATLALARPRIPWGAVETDTFGHITDFIEAPPSPFLINAGVYVFSAAFTELLPDLGDHERTTFPRLARERRLAGFPLPQGAYWRAIDTAKDLTEAAKELAAQRG
notes: The His6 tag can be cleaved by TEV protease; also called SVEN15_3882
Broadly, the Km is the concentration of substrate that gives half-maximal velocity. The kcat is the maximal rate divided by the concentration of active sites. Usually kcat/Km stands for the turnover number divided by the Michaelis constant. For B1, the Km in [2] came out at 860 ± 80 µM; in [3] it was 170 ± 20 µM; in [4], 470 ± 30 µM; in data set [5] it was 7100 ± 800 µM. For the same molecule, the kcat in [2] stood at 0.0119 ± 0.0004 s⁻¹; in data set [3], 0.049 ± 0.001 s⁻¹; in [4], 0.0156 ± 0.0004 s⁻¹; in [5], 0.014 ± 0.001 s⁻¹. In addition, the kcat/Km came to 14 ± 1 M⁻¹ s⁻¹ in data set [2], 300 ± 30 M⁻¹ s⁻¹ in data set [3], 33 ± 2 M⁻¹ s⁻¹ in data set [4] and 2 ± 0.3 M⁻¹ s⁻¹ in [5]. Besides, in data set [6], the “stoichiometry N” value turned out to be 2.

B2: S. venezuelae OtsA (Streptomyces venezuelae ATCC 10712) (protein)
chain: MASVLVASNRGPVSYVRGEDGELDARRGGGGLVSGLSAVSSQDSLWVCAALGEGDREAVRRGIGEPGVRMLDIAPDVYADAYNGIANSVLWFLHHHLYDIPREPVFDAAFRHRWEAYRAYNRAFAEALAAAADEGAAVLVQDYHLALVPGQLRELRPDLRIGHFTHTPWASPEYFRMLPADIGDELLRGMLGADELGFHTSAWASAFLSCAGGEQPRTRVRVHPLGVDAEELRALAHRPQVDERLARLREEVGDRKTIVRVDRTELSKNILRGLLAYRELLTVHPEWRDRVVHLASAYPSRQDLAAYRAYTASVTELAAEINAEFGTADWQPVLVSVEDDFTRSLAAYRLADVALVNPVRDGMNLVAKEIPVVSDAGCALVLSTGAGAYEELKEDALTVHPYDVSETAEALHTALTMPPPERADRTKRLASAATALPPQRWFLNQLEGLSDA
notes: synthetic gene, E. coli SoluBL21; 51 kDa with tag; homodimer (109 kDa by SEC)
As for B2, in [7], the Km was determined as 440 ± 50 µM, the kcat amounted to 29 ± 1 s⁻¹ and the kcat/Km stood at 67000 ± 7000 M⁻¹ s⁻¹. In addition, in [8], the Km came to 120 ± 20 µM, the turnover number (kcat) worked out at 139 ± 8 s⁻¹ and the catalytic efficiency (kcat/Km) stood at 1.14e+06 ± 223000 M⁻¹ s⁻¹.

B3: SVEN_2781 (Streptomyces venezuelae ATCC 10712) (protein)
chain: MTEAILLVGGKGTRLRPLTVNTPKPMVPAAGVPFLTHQLARARAAGVEHIVLATSYLAEVFEPHFGDGSSLGLSLEYVTEEEPLGTGGAIRNVASRLHSGPDDPVLIFNGDILTGLDIQALVATHSSSGADVSLHLTRVEDPRAFGLVPTDATGRVTAFLEKPQTPEEIVTDQINAGAYVFRRSVIDTIPAGRPVSVERETFPDLLASGAHLQGMVDSTYWLDLGTPQAFVRGSADLVLGRAPSPAVPGRCGDRLVLPSARVAPDAKLTGGTVVGADAVVGDGARITGSTLLAGAVVEPGAVITDSLIGAGARIGARSVLTGAVIGDGAQVGPDNELRDGVRVWCDATLPAGAVRFSSDQ
notes: synthetic gene, E. coli BL21(DE3); active form dimer
Turning to B3, in data set [9], the Km stood at 2700 ± 300 µM, the kcat worked out at 0.167 ± 0.008 s⁻¹ and the kcat/Km is 60 ± 10 M⁻¹ s⁻¹. For the same molecule, in data set [10], the Km was found to be 260 ± 20 µM, the turnover number (kcat) worked out at 0.159 ± 0.002 s⁻¹ and the catalytic efficiency (kcat/Km) was found to be 610 ± 40 M⁻¹ s⁻¹. In addition, in data set [11], the Michaelis-Menten constant (Km) came to 1400 ± 100 µM, the kcat turned out to be 0.171 ± 0.004 s⁻¹ and the catalytic efficiency (kcat/Km) came to 120 ± 10 M⁻¹ s⁻¹.
